Results: the supplement of paper PMC10567573

B1: TRIM43 (parent)
chain: RAQMIRNEYRKLHPVLHKEEKQHL
B2: TRIM39 (parent)
chain: CKACITRWWEDLERDFPCPVCRKT

Variants of: B1
Assay: protein stability index of a GFP-peptide fusion (GPS, HEK-293T) (PSI 1-6); higher = more stable
Details: c terminus: a fixed tail appended
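Further: lentivirally expressed fusions sorted by FACS into six bins by GFP to DsRed ratio, PSI derived from sequencing read proportions per bin multiplied by bin number.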

Row | Variant | protein stability index
1 | L24I | 3.19
2 | L24W | 2.88
3 | L24R | 3.06
4 | L24T | 4.01
5 | L24N | 4.01
6 | L24Q | 3.84
7 | L24M | 3.45
8 | L24P | 3.5
9 | L24S | 3.82
10 | L24V | 3.67
11 | L24K | 3.77
12 | L24Y | 3.34

Variants of: B2
Assay: as above
Details: c terminus: a fixed tail appended

Row | Variant | protein stability index
13 | C4I | 1.59
14 | C4R | 2.18
15 | C4K | 2.05
16 | C4Y | 1.61
17 | C4W | 1.75
18 | C4A | 1.72
19 | C4V | 2.19
20 | C4L | 1.63
21 | C4Q | 2.41
22 | C4M | 1.9
23 | C4T | 2.24
24 | C4G | 1.65
25 | C4P | 2.1
26 | C4F | 2.45
27 | C4N | 2.35
28 | C4S | 2.07
29 | V20E | 4.77
30 | V20W | 3.56
31 | V20H | 3.88
32 | V20M | 3.37
33 | V20Y | 3.73
34 | V20I | 4.22
35 | V20S | 4.3
36 | V20D | 4.55
37 | V20C | 3.44

Row | Variant | protein stability index
38 | W9Y | 3.75
39 | W9F | 4.07
40 | W9A | 4.23
41 | W9S | 4.56
42 | W9M | 4.11
43 | W9T | 4.25
44 | W9E | 4.24
45 | W9N | 4.52
46 | W9K | 4.86
47 | W9C | 4.53
48 | W9G | 4.55
49 | W9L | 3.87
50 | W9R | 4.47
51 | P17E | 4.41
52 | P17Q | 4.2
53 | P17Y | 3.9
54 | P17R | 4.27
55 | P17W | 3.49
56 | P17N | 4.27
57 | P17C | 3.98
58 | P17M | 4.09
59 | P17L | 3.85
60 | P17K | 4.06
61 | P17A | 3.55
62 | P17D | 3.5

Row | Variant | protein stability index
63 | P17F | 4.25
64 | P17G | 3.46
65 | E13H | 3.23
66 | E13D | 3.7
67 | E13R | 3.46
68 | E13P | 3.61
69 | E13I | 3.08
70 | E13A | 3.36
71 | E13N | 3.61
72 | E13V | 2.98
73 | E13K | 2.98
74 | E13F | 3.37
75 | E13T | 3.13
76 | E13C | 2.82
77 | T6S | 3.62
78 | T6I | 3.01
79 | T6Y | 3.33
80 | T6W | 3.36
81 | T6L | 3.58
82 | T6M | 3.27
83 | T6V | 2.71
84 | T6D | 4.27
85 | T6F | 2.95
86 | T6H | 3.28
87 | T6N | 4.38

Row | Variant | protein stability index
88 | T6C | 2.57
89 | T6G | 4.36
90 | T6K | 3.57
91 | T6A | 3.64
92 | T6Q | 3.77
93 | T6E | 4.03
94 | E10R | 3.06
95 | E10H | 3.77
96 | E10C | 3.64
97 | E10F | 3.51
98 | E10W | 2.92
99 | E10M | 3.64
100 | E10Q | 3.56
101 | E10I | 3.65
102 | E10T | 4.08
103 | E10Y | 3.24
104 | E10N | 4.11
105 | E10P | 3.72
106 | D11W | 3.37
107 | D11S | 4.28
108 | D11T | 3.58
109 | D11A | 3.71
110 | D11H | 3.52
111 | D11G | 2.85
112 | D11Q | 3.48

Row | Variant | protein stability index
113 | D11L | 3.57
114 | D11M | 3.9
115 | D11C | 3.38
116 | D11P | 3.93
117 | D11N | 4.06
118 | D11Y | 3.31
119 | L12P | 4.06
120 | L12Y | 3.43
121 | L12C | 3.88
122 | L12W | 3.87
123 | L12Q | 3.65
124 | L12T | 4.45
125 | L12V | 3.63
126 | L12I | 3.71
127 | L12G | 4.11
128 | L12M | 4.14
129 | L12F | 3.88
130 | L12D | 4.05
131 | L12H | 2.89
132 | I5E | 4.6
133 | I5R | 3.93
134 | I5N | 4.12
135 | I5K | 3.88
136 | I5C | 4.63
137 | I5W | 3.99

Row | Variant | protein stability index
138 | I5S | 4.22
139 | I5V | 3.35
140 | I5A | 4.25
141 | I5F | 4.22
142 | I5L | 4.25
143 | I5H | 4.49
144 | I5G | 3.86
145 | I5Y | 4.39
146 | I5Q | 4.31
147 | F16V | 4.04
148 | F16M | 3.99
149 | F16I | 3.78
150 | F16E | 4.66
151 | F16H | 4.1
152 | F16L | 2.96
153 | F16P | 3.76
154 | F16R | 4.2
155 | F16W | 3.6
156 | F16Q | 4.59
157 | F16A | 4.32
158 | F16S | 4.27
159 | R7W | 3.97
160 | R7I | 2.96
161 | R7G | 4.08
162 | R7T | 4.07

Row | Variant | protein stability index
163 | R7F | 3.79
164 | R7K | 3.73
165 | R7E | 3.73
166 | R7L | 3.58
167 | R7D | 4
168 | R7C | 3.8
169 | R7N | 3.89
170 | R7M | 3.72
171 | R7A | 4.08
172 | R7Y | 4.85
173 | R7H | 5.06
174 | R7V | 3.28
175 | R7S | 3.98
176 | C21P | 1.11
177 | C21D | 2.57
178 | C21K | 2.19
179 | C21R | 1.94
180 | C21I | 1.38
181 | C21S | 1.68
182 | C21Q | 2.48
183 | C21E | 1.32
184 | C21F | 1.43
185 | C21H | 2.63
186 | C21T | 1.56
187 | C21A | 2.18

Row | Variant | protein stability index
188 | R14G | 4.59
189 | R14A | 4.19
190 | R14C | 4.09
191 | R14F | 3.69
192 | R14E | 4.59
193 | R14P | 3.79
194 | R14H | 4.23
195 | R14L | 3.4
196 | R14Y | 3.48
197 | R14T | 4.63
198 | R14Q | 3.78
199 | R14V | 3.76
200 | R14K | 4.03
201 | R14S | 4.4
202 | R14W | 3.52
203 | R14D | 3.99
204 | R14I | 3.26
205 | R14M | 4.27
206 | C18V | 1.28
207 | C18K | 1.38
208 | C18H | 1.54
209 | C18L | 2.41
210 | C18Y | 2.02
211 | C18R | 2.02
212 | C18E | 1.94

Row | Variant | protein stability index
213 | C18G | 1.77
214 | C18W | 1.11
215 | C18N | 1.24
216 | C18D | 1.71
217 | C18S | 1.88
218 | C18M | 1.42
219 | P19M | 2.88
220 | P19N | 3.29
221 | P19E | 3.55
222 | P19F | 1.95
223 | P19H | 3.35
224 | P19C | 2.26
225 | P19W | 2.1
226 | P19L | 2.65
227 | P19A | 3.15
228 | P19I | 2.3
229 | P19R | 2.82
230 | P19Q | 3.12
231 | P19D | 3.85
232 | T24K | 3.83
233 | T24P | 2.78
234 | T24V | 3.57
235 | T24A | 4.07
236 | T24S | 4.03
237 | T24Y | 3.74

Row | Variant | protein stability index
238 | T24E | 3.98
239 | T24M | 3.76
240 | T24H | 3.58
241 | T24L | 3.78
242 | T24I | 3.57
243 | T24F | 3.03
244 | T24W | 3.02
245 | K2I | 3.25
246 | K2R | 4.02
247 | K2D | 4.5
248 | K2T | 4.05
249 | K2L | 3.58
250 | K2M | 3.69
251 | K2E | 4.48
252 | K2A | 4.08
253 | K2P | 4.11
254 | K2Q | 4.08
255 | K2C | 3.64
256 | K2F | 3.34
257 | K2W | 3.23
258 | K2V | 3.53
259 | C1R | 2.43
260 | C1V | 2.27
261 | C1L | 2.31
262 | C1H | 2.16

Row | Variant | protein stability index
263 | C1D | 2.45
264 | C1W | 2.56
265 | C1P | 2.42
266 | C1F | 1.42
267 | C1K | 1.76
268 | C1G | 1.74
269 | C1E | 2.07
270 | A3Y | 3.9
271 | A3I | 3.9
272 | A3M | 3.35
273 | A3L | 3.8
274 | A3D | 4.04
275 | A3S | 4.21
276 | A3Q | 4.06
277 | A3V | 4.17
278 | A3K | 3.06
279 | A3E | 4.12
280 | A3R | 3.53
281 | A3P | 2.48
282 | A3C | 3.57
283 | K23I | 3.23
284 | K23L | 2.96
285 | K23W | 2.95
286 | K23P | 3.41
287 | K23N | 3.95

Row | Variant | protein stability index
288 | K23M | 3.37
289 | K23T | 3.31
290 | K23F | 2.57
291 | K23R | 3.25
292 | K23A | 3.9
293 | K23H | 3.27
294 | K23E | 4.33
295 | K23C | 3.13
296 | R22M | 3.72
297 | R22E | 4.37
298 | R22H | 4.32
299 | R22G | 4.6
300 | R22W | 2.53
301 | R22T | 3.72
302 | R22L | 3.81
303 | R22Y | 3.58
304 | R22F | 3.4
305 | R22N | 4.22
306 | R22P | 3.15
307 | W8Q | 4.83
308 | W8S | 4.92
309 | W8R | 4.62
310 | W8T | 4.09
311 | W8F | 4.17
312 | W8I | 4.26

Row | Variant | protein stability index
313 | W8D | 4.42
314 | W8V | 4.73
315 | W8K | 4.6
316 | W8E | 4.73
317 | W8A | 4.07
318 | W8N | 5.12
319 | W8G | 4.8
320 | W8Y | 4.22
321 | D15R | 2.46
322 | D15F | 3.24
323 | D15E | 3.54
324 | D15P | 3.87
325 | D15K | 2.98
326 | D15L | 2.26
327 | D15N | 3.73
328 | D15A | 3.32
329 | D15G | 3.31
330 | D15C | 2.09
331 | D15W | 2.72
332 | D15V | 3
333 | D15S | 3.79
334 | D15I | 2.43
